{"source": "patent US20240309360A1", "about": "“TRANS-ACTIVATORS AND METHODS AND USE THEREOF” (THE GOVERNING COUNCIL OF THE UNIVERSITY OF TORONTO, priority 2021, published 2024)"}
{"tested_on": "EGFP reporter (7×TetO array, basal CMV promoter) in HEK293T reporter cell line", "assay": "Arrayed recruitment assay, PYL1 fusions individually recruited to reporter via ABI1-dCas9 with ABA", "assay_type": "cell-based, human", "details": "PYL1 fusion, ABA 48 hours, flow cytometry", "excerpt": "Treatment of cells with abscisic acid (ABA) induces an interaction between ABI1 and PYL1, thereby recruiting the potential transcriptional activator to a specific genomic locus defined by the guide RNA (gRNA). As a reporter, a HEK293T cell line that contains a stably integrated construct with a 7×TetO array and a basal CMV promoter driving the expression of EGFP was used (Gao et al., 2016). A monoclonal cell line that expresses ABI1-dCas9 and a single gRNA targeting TetO was generated by lentiviral infection.\nArrayed recruitment assays. Reporter cells stably co-expressing ABI-dCas9 and TetO gRNA were seeded either on 48-well or 96-well plates (Sarstedt) to reach 50-70% confluency on the day of transfection. 150 ng of each construct to be tested was transfected with polyethylenimine (PEI) at a ratio of 0.6 μl reagent. The day after transfection, recruitment was induced by treatment with ABA (100 μM). […] Inhibitors were dissolved in DMSO to a stock concentration of 10 mM. The final concentrations used were 100 nM for flavopiridol, 300 nM for JQ1, 1 μM for A-485, 2.5 μM for CX-4945 and 3 μM for AZ191. All inhibitors were a kind gift from the Structural Genomics Consortium (SGC). 48 hours after induction, cells were dissociated and resuspended in flow buffer using a liquid handing robot (TECAN) and analyzed by LSR Fortessa (BD). Cells were gated on high EBFP2 and RFP as a measure of gRNA and transfection control, respectively. Flow cytometry data was analyzed using FlowJo (v10)."}
{"molecule": "SPDYC: Spy1/RINGO family protein (protein, listed as Homo sapiens) MLWAIPELGSPCPISISYEMSDSQDPTTSPVVTTQVELGGCSRQGGGNGFLRFRQHQEVQAFLSLLEDSFVQEFLSKDPCFQISDKYLLAMVLVYFQRAHLKLSEYTHSSLFLALYLANDMEEDLEGPKCEIFPWALGKDWCLRVGKFLHQRDKLWARMGFRAVVSRQCCEEVMAKEPFHWAWTRDRRPHHGGVQRVCPQVPVRLPRGPGLSPPHCSPCGLPQHCSSHLLKPVSSKCPSLTSECHRPPSQNYLSRVKNAWGGDFLIVLPPQMQLEPGTYSLRIFPKPPARPGH", "activation of the EGFP reporter when individually tested": "inactive in the recruitment assay"}
{"molecule": "RYBP: YAF2_RYBP domain of RYBP (protein, listed as Homo sapiens) IQSANATTKTSETNHTSRPRLKNVDRSTAQQLAVTVGNVTVIITDFKEKTRSSSTSSSTVTSSAGSEQQNQS", "activation of the EGFP reporter when individually tested": "robustly activated the reporter"}
{"molecule": "CBX6: CBX-C domain of CBX6 (protein, listed as Homo sapiens) GASSEPEAGDWRPEMSPCSNVVVTDVTSNLLTVTIKEFCNPEDFEKVAAGVAGAAGGGGSIGASK", "activation of the EGFP reporter when individually tested": "activated the reporter weakly"}
{"molecule": "C3orf62-Cterm: C-terminal fragment of C3orf62 fused to SRF in the fusion (protein, left off: things letters cannot carry; small tags and cut ends, C-terminal fragment of C3orf62 fused to SRF in the fusion) AAVPCAPENENPAFATNHAPVNAKPHALCPERKPLTSKENVLMHSSILAPERESWRTAGEGENWRKENLRKDMERDLKADSNMPLNNSSQEVTKDLLDMIDHTSIRTIEELAGKIEFENELNHMCGHCQDSPFKEEAWALLMDKSPQKATDADPGSLKQAFDDHNIVETVLDLEEDYNVMTSFKYQIE", "activation of the EGFP reporter when individually tested": "strongly activated the GFP reporter"}
